Key:
Settings in all cases: both partners purified
[1] = target: T1, human MYPN C-terminal region including three Ig domains (MYPN C-term; Res. 813-1320), N-terminal 6xHis-tag (human, UniProt Q86TC9-1 813-1320, NT-647 dye via NHS-driven amino coupling (only where it was the labelled partner, Figure 1C)); experiment: MST; 450 nM NT-647-labelled titin Ig Z4-Z5 titrated with MYPN (up to 20 µM) or PALLD (up to 30 µM) C-term; 30 min at room temperature in 20 mM Tris-HCl pH 8, 150 mM NaCl, 5 mM EDTA, 4 mM DTT; Hill fit; saturation not reached, Kd could not be unequivocally determined; apparent
T1 construct: Unlabelled in assay a3, labelled with NT-647 in assay a4; also called MYPN C-terminal fragment; MYPN C-terminal domain; source: E. coli BL21-CodonPlus (DE3)-RIPL, purified (HisTrap, Superdex 75 SEC)
T1 sequence (looked up): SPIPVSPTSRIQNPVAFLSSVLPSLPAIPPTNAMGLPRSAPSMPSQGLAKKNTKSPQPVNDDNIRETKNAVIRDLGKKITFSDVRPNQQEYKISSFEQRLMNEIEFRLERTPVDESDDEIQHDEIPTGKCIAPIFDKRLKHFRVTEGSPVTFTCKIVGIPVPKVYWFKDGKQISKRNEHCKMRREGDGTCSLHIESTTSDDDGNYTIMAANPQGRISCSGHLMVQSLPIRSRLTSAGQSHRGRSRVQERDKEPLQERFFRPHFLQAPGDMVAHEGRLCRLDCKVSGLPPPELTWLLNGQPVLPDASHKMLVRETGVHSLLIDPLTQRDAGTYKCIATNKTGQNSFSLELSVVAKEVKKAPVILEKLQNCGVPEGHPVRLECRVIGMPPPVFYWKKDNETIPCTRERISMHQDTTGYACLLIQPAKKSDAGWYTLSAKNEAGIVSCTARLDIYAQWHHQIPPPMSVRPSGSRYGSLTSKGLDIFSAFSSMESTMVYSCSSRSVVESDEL

[2] = target: T2, PALLD C-terminal region (PALLD C-term; Res. 794-1123), N-terminal 6xHis-tag followed by a human rhinovirus 3C … (human, UniProt Q8WX93-9 794-1123); experiment: as above
T2 construct: numbers count on: NM_001166108.1; A 3C protease site follows the tag; also called homologous fragment of PALLD; PALLD C-terminal domain; source: E. coli BL21-CodonPlus (DE3)-RIPL, purified (HisTrap, Superdex 75 SEC)
T2 sequence (looked up): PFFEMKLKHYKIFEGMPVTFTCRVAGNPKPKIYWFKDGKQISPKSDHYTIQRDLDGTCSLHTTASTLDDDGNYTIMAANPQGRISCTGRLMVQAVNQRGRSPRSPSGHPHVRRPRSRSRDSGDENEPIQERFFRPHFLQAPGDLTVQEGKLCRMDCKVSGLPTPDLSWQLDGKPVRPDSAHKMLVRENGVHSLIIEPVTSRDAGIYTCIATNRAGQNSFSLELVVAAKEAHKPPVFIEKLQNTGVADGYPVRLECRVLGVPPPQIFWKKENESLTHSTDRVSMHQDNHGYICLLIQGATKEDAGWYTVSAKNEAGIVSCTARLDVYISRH

[3] = target: T1, human MYPN C-terminal region including …; experiment: MST; 400 nM NT-647-labelled MYPN C-term titrated with titin Ig Z4-Z5; 30 min at room temperature in 20 mM Tris-HCl pH 8, 150 mM NaCl, 5 mM EDTA, 4 mM DTT; Hill fit; full saturation reached; apparent

B1: titin Ig domains Z4-Z5 (Res. 942-1173), N-terminal 6xHis-tag (domain or fragment, human, UniProt Q8WZ42-1 942-1173, looked up)
chain: PPTLVSGLKNVTVIEGESVTLECHISGYPSPTVTWYREDYQIESSIDFQITFQSGIARLMIREAFAEDSGRFTCSAVNEAGTVSTSCYLAVQVSEEFEKETTAVTEKFTTEEKRFVESRDVVMTDTSLTEEQAGPGEPAAPYFITKPVVQKLVEGGSVVFGCQVGGNPKPHVYWKKSGVPLTTGYRYKVSYNKQTGECKLVISMTFADDAGEYTIVVRNKHGETSASASLLE
modifications: NT-647 dye via NHS-driven amino coupling (only where it was the labelled partner, Figure 1B)
notes: titin, human, Ig domains Z4-Z5, residues 942-1173 of NM_001256850.1; Labelled with NT-647 in assay a3, unlabelled in assay a4; also called titin Ig domain Z4-Z5 peptide; titin Ig domain Z4-Z5 fragment; source: E. coli BL21-CodonPlus (DE3)-RIPL, purified (HisTrap, Superdex 75 SEC)
Kd [1]: 7.2 ± 2.6 µM | Kd [2]: 6.1 ± 0.8 µM | Kd [3]: 2800 ± 500 nM
